Results: patent US20200207869A1

Molecular target: VWF in the plasma of the mice (endogenous murine VWF) (murine) (UniProt Q8CIZ8)
Assay: sandwich ELISA of mouse plasma, anti-FVII capture, anti-VWF detection, n=4 mice

- OD450 nm: 0.684 OD450 nm
B1: FVII-KB13-bv (protein)
chain: AGGVAKASGGETRDMPWKPGPHRVFVTQEEAHGVLHRRRRANAFLEELRPGSLERECKEEQCSFEEAREIFKDAERTKLFWISYSDGDQCASSPCQNGGSCKDQLQSYICFCLPAFEGRNCETHKDDQLICVNENGGCEQYCSDHTGTKRSCRCHEGYSLLADGVSCTPTVEYPCGKIPILEKRNASKPQGRIVGGKVCPKGECPQVLLLVNGAQLCGGTLINTIWVVSAAHCFDKIKNWRNLIAVLGEHDLSEHDGDEQSRRVAQVIIPSTYVPGTTNHDIALLRLHQPVVLTDHVVPLCLPERTFSERTLAFVRFSLVSGWGQLLDRGATALELMVLNVPRLMTQDCLQQSRKVGDSPNITEYMFCAGYSDGSKDSCKGDSGGPHATHYRGTWYLTGIVSWGQGCATVGHFGVYTRVSQYIEWLQKLMRSEPRPGVLLRAPFPLTPRGVRLGGGSGGGSGGGSGGGSQVQLVQSGGGLVQAGDSLRLSCAASGRTFIRYAMAWFRQAPGKEREFVAAIPQSGGRSYYADSVKGRFTISRDNAKNTVYLQMNSLKPEDTAVYSCAATSTYYGRSAYSSHSGGYDYWGQGTQVTVSSGGGSGGGSGGGSGGGSQVQLVQSGGGLVQAGDSLRLSCAASGRTFIRYAMAWFRQAPGKEREFVAAIPQSGGRSYYADSVKGRFTISRDNAKNTVYLQMNSLKPEDTAVYSCAATSTYYGRSAYSSHSGGYDYWGQGTQVTVSS
